{
  "source": "patent US6936431",
  "about": "(dated 2005)",
  "key": {"[1]": {"biological_target": "T1, rat brain farnesyl:protein transferase (rat, UniProt Q04631 2-377; Q02293 1-437)"}, "[2]": {"biological_target": "T1, rat brain farnesyl:protein transferase", "experiment": "farnesyltransferase activity inhibition; FIG. 10C"}, "[3]": {"biological_target": "T1, rat brain farnesyl:protein transferase", "experiment": "farnesyltransferase activity inhibition; FIG. 10B"}, "[4]": {"biological_target": "T1, rat brain farnesyl:protein transferase", "experiment": "farnesyltransferase activity inhibition; FIG. 12B"}, "[5]": {"biological_target": "T1, rat brain farnesyl:protein transferase", "experiment": "farnesyltransferase activity inhibition; FIG. 12A"}, "[6]": {"biological_target": "T1, rat brain farnesyl:protein transferase", "experiment": "farnesyltransferase activity inhibition; FIG. 11"}, "[7]": {"biological_target": "T1, rat brain farnesyl:protein transferase", "experiment": "farnesyltransferase activity inhibition; FIG. 10A"}},
  "note": "Values joined by “and” are separate entries in the source; they are usually repeats but may differ in a detail not shown here. Equal values may be shown once. Read-outs that look alike come from different tables or passages of the source.",
  "data": [
    {"binder": "CVIM", "note": "[CVIM (COOH-terminal tetrapeptide of p21^K-rasB)]", "values": [
      {"measurement": "Ki", "setting": "[1]", "result": "350 nM and 200 nM"}
    ]},
    {"binder": "CVLM", "values": [
      {"measurement": "Ki", "setting": "[2]", "result": 200, "unit": "nM"}
    ]},
    {"binder": "CVIK", "note": "[CVIM with lysine at the X position (CVIK)]", "values": [
      {"measurement": "Ki", "setting": "[3]", "result": "> 30000", "unit": "nM"}
    ]},
    {"binder": "CVFM", "values": [
      {"measurement": "Ki", "setting": "[4]", "result": 35, "unit": "nM"},
      {"measurement": "Ki", "setting": "[5]", "result": 10, "unit": "nM"}
    ]},
    {"binder": "CFIM", "values": [
      {"measurement": "Ki", "setting": "[6]", "result": 500, "unit": "nM"}
    ]},
    {"binder": "CVIL", "note": "[CVIL (COOH-terminal tetrapeptide of rap2b)]", "values": [
      {"measurement": "Ki", "setting": "[2]", "result": 10500, "unit": "nM"}
    ]},
    {"binder": "CVKM", "note": "[CVIM with lysine at the A2 position (CVKM)]", "values": [
      {"measurement": "Ki", "setting": "[3]", "result": "> 30000", "unit": "nM"}
    ]},
    {"binder": "CLIM", "values": [
      {"measurement": "Ki", "setting": "[2]", "result": 80, "unit": "nM"}
    ]},
    {"binder": "CVAM", "values": [
      {"measurement": "Ki", "setting": "[7]", "result": 6000, "unit": "nM"}
    ]},
    {"binder": "CVIA", "note": "[CVIA (COOH-terminal tetrapeptide of a-Mating factor)]", "values": [
      {"measurement": "Ki", "setting": "[7]", "result": 4000, "unit": "nM"}
    ]}
  ]
}
